Our source for the Kd values is PMC6208348 (2018).

The labels stand for the following.
B1: L. longbeachae LeSH (natural protein)
chain: MEAMQKNELNSKIPIIFGLINSYQIHNLLEQHNAKTKESKAVFLIRDSSTYPGLLTISYYCQEQDIVKHIRFGLTDKGWKTAPKPPHEPLKSDSPEIKEKYTLDKIKFERKMKQFINTAKKLFEQHIRAESFKTLIMELKIHEFNLEGLIKPTRSQASQEKHFTDYV
B2: IL2Rβ pTyr387 peptide (fluorescein-labelled) (peptide)
chain: YFTYDPYSEEDPD
modifications: not fully specified (N-terminus); also: pTyr387, position not given here, fluorescein-labelled
B3: DnaJ-A1 pTyr381 peptide (fluorescein-labelled) (peptide)
chain: HYNGEAYEDDEHH
modifications: not fully specified (N-terminus); also: pTyr381, position not given here, fluorescein-labelled
B4: Shc1 pTyr317 peptide (acetyl-DPSpYVNVQNL-amide) (peptide)
peptide: Ac-DPS[pY]VNVQNL-NH2
SMILES: CC(=O)N[C@@H](CC(=O)O)C(=O)N1CCC[C@H]1C(=O)N[C@@H](CO)C(=O)N[C@@H](Cc1ccc(OP(=O)(O)O)cc1)C(=O)N[C@H](C(=O)N[C@@H](CC(N)=O)C(=O)N[C@H](C(=O)N[C@@H](CCC(N)=O)C(=O)N[C@@H](CC(N)=O)C(=O)N[C@@H](CC(C)C)C(N)=O)C(C)C)C(C)C

Holding throughout (assay): FP
Assay [1] concerns the target Shc1-pTyr239.
For assay [2], the target named is MidT-pTyr324.
The target in assay [3] is Shc1-pTyr239. This is another data set of the same source.
Assay [4] has as its target Shc1-pTyr317.
The target in assay [5] is DnaJ-A1-pTyr381 ∆C peptide (human, UniProt P31689).
In assay [6] the target is VCP-pTyr805-tail7.
The target of assay [7] is EGFR-pTyr1086.
The target in assay [8] is Src SH2 TrM (superbinder).
In assay [9] the target is L. anisa LeSH2b (Lani_WP_019234638) (Legionella anisa).
Assay [10] addresses wild-type Src SH2 domain (UniProt P12931 151-248).
Assay [11] has as its target B1.
Assay [12] has as its target L. pneumophila RavO SH2 domain (Gly212-Asp406) (Legionella pneumophila, UniProt Q5ZWF6 212-406).
In assay [13] the target is L. dumoffii LeSH2 (Legionella dumoffii).
The target in assay [14] is L. pneumophila DoSH C-SH2.
The target in assay [15] is L. anisa LeSH1b (Lani_2495) (Legionella anisa).
In assay [16] the target is T1, L. dumoffii LeSH1a (Legionella dumoffii).
Assay [17] concerns the target L. waltersii LeSH5 tandem SH2.
Assay [18] has as its target L. pneumophila LeSH2.
Assay [19] addresses L. longbeachae LUSH SH2 domain (Ser3-Ser171) (Legionella longbeachae).
Assay [20] has as its target Src SH2 TrM (superbinder). This is another data set of the same source.
Assay [21] concerns the target T1, L. dumoffii LeSH1a. The source holds these as a separate data set.

Several values for one entry are separate records, joined by “and”; a condition that tells them apart may be missing. Equal entries are not always repeated. Where two headings read alike, the source gives them in different places. Non-standard residues stand in square brackets, D forms with d. No end group written: not given here. pY = N[C@@H](Cc1ccc(OP(=O)(O)O)cc1)C(=O)O; pT = C[C@@H](OP(=O)(O)O)[C@H](N)C(=O)O

By Kd is commonly meant a measure of binding affinity in units of concentration. Take B1: the Kd in assay [1] was 7.1 µM; in assay [2], 3.7 µM; in [3] it was 7.15 µM; in assay [4] it was 6.71 µM; in assay [5], 2.75 µM; in assay [6] it was 2.2 µM. Besides, the Kd in assay [7] came to 20.4 µM.

GG[pY]GG [mini peptide GGpYGG]: the Kd in [8] came out at 1.5 µM; in [9], 35.2 µM.

With B2, the Kd in assay [10] was 4.13 µM; in assay [11], 0.91 µM and 0.9 µM; in [12] it was 7.57 µM and 7.6 µM; in [13], 2.94 µM; in [9], 4 µM; in assay [14], 23 µM. For the same molecule, the equilibrium dissociation constant (Kd) in assay [15] is greater than 50 µM; in assay [16], greater than 50 µM; in assay [17] it was 18 µM; in assay [18] it was 1.71 µM.

As to B3, the Kd is 0.5 µM and 0.53 µM in [11]; 19.2 µM in assay [12]; 18.7 µM in assay [9]; greater than 50 µM in [14]; greater than 50 µM in assay [15]; greater than 50 µM in assay [16]. For the same molecule, the Kd in [17] amounted to 29.2 µM.

For YG [pY-G dipeptide (VCP peptide)], the Kd in assay [19] is 0.81 µM; in assay [11], 0.99 µM and 1 µM; in assay [13], 7.43 µM; in assay [16], greater than 50 µM; in assay [20], 1.79 µM.

As for GG[pT]GG [pThr-containing version of GGpYGG], the Kd in [19], in [11], in assay [12], in assay [8], in [13] and in assay [16] was greater than 50 µM in each case.

On to B4, for which the Kd is greater than 50 µM in assay [21], 6.7 µM in [11] and 1.1 µM in assay [12].
